Consider 1 substance from article PMC7900914.

The target of the assay is HLA-B*57:01–T3N (human | not stated | HIV-1). Description: SPR.

Turning to “KIR3DL1*001 (similar construct, from insect cells) (from UniProt P43629 22-444) (receptor)”, the Kd was 100 µM.
